Measured values taken from patent publication US20220144956A1 (published 2022).
Numbering of substitutions follows the chain as printed.

B1: H1.59 L1 XENP34515 (antibody, V domains shown)
VH: QLQVQESGPGLVKPSETLSLTCTVSGGSISNSYFSWGWIRQPPGKGLEWIGSFYYGENTYYNPSLKSRATISIDTSKSQFSLKLSSVTAADTAVYYCPRGPTMIRGVIDSWGQGTLVTVSS
VL: EIVLTQSPATLSLSPGERATLSCRASQSVRSYLAWYQQKPGQAPRLLIYDASNRATGIPARFSGSGSGTDFTLTISSLEPEDFAVYYCQQRSNWPPTFGQGTKVEIK
B2: H1.76 L1 XENP34532 (antibody, V domains shown)
VH: B1 VH with N58K, A90E
VL: B1 VL
B3: H1.72 L1 XENP34528 (antibody, V domains shown)
VH: B1 VH with N58K, A69V
VL: B1 VL
B4: H1.49 L1 XENP34505 (antibody, V domains shown)
VH: B1 VH with Y54H, N58K
VL: B1 VL
B5: H1.66 L1 XENP34522 (antibody, V domains shown)
VH: B1 VH with N58K, N62A
VL: B1 VL
B6: H1.71 L1 XENP34527 (antibody, V domains shown)
VH: B1 VH with N58K, A69F
VL: B1 VL
B7: H1.70 L1 XENP34526 (antibody, V domains shown)
VH: B1 VH with N58K, S67G
VL: B1 VL
B8: H1.46 L1 XENP34502 (antibody, V domains shown)
VH: B1 VH with F53I, N58K
VL: B1 VL
B9: H1.57 L1 XENP34513 (antibody, V domains shown)
VH: B1 VH with E57S, N58K
VL: B1 VL
B10: H1.39 L1 XENP34495 (antibody, V domains shown)
VH: B1 VH with P42H, N58K
VL: B1 VL
B11: H1.44 L1 XENP34500 (antibody, V domains shown)
VH: B1 VH with S52V, N58K
VL: B1 VL
B12: H1.41 L1 XENP34497 (antibody, V domains shown)
VH: B1 VH with S52E, N58K
VL: B1 VL
B13: H1.45 L1 XENP34501 (antibody, V domains shown)
VH: B1 VH with S52Y, N58K
VL: B1 VL
B14: H1.53 L1 XENP34509 (antibody, V domains shown)
VH: B1 VH with Y55H, N58K
VL: B1 VL
B15: H1.69 L1 XENP34525 (antibody, V domains shown)
VH: B1 VH with N58K, K66Q
VL: B1 VL
B16: H1.63 L1 XENP34519 (antibody, V domains shown)
VH: B1 VH with N58K, Y60H
VL: B1 VL
B17: H1.40 L1 XENP34496 (antibody, V domains shown)
VH: B1 VH with I50V, N58K
VL: B1 VL
B18: H1.68 L1 XENP34524 (antibody, V domains shown)
VH: B1 VH with N58K, K66E
VL: B1 VL
B19: H1.73 L1 XENP34529 (antibody, V domains shown)
VH: B1 VH with N58K, I73V
VL: B1 VL
B20: H1 L1.23 XENP34586 (antibody, V domains shown)
VH: B1 VH with N58K
VL: B1 VL with N53D
B21: H1 L1.8 XENP34571 (antibody, V domains shown)
VH: B1 VH with N58K
VL: B1 VL with R30K
B22: H1 L1.26 XENP34589 (antibody, V domains shown)
VH: B1 VH with N58K
VL: B1 VL with T56S
B23: H1 L1.41 XENP34604 (antibody, V domains shown)
VH: B1 VH with N58K
VL: B1 VL with S92A
B24: H1 L1.14 XENP34577 (antibody, V domains shown)
VH: B1 VH with N58K
VL: B1 VL with Y32N
B25: H1 L1.20 XENP34583 (antibody, V domains shown)
VH: B1 VH with N58K
VL: B1 VL with D50E
B26: H1 L1.19 XENP34582 (antibody, V domains shown)
VH: B1 VH with N58K
VL: B1 VL with Q42L
B27: H1 L1.27 XENP34590 (antibody, V domains shown)
VH: B1 VH with N58K
VL: B1 VL with G57S
B28: H1 L1.24 XENP34587 (antibody, V domains shown)
VH: B1 VH with N58K
VL: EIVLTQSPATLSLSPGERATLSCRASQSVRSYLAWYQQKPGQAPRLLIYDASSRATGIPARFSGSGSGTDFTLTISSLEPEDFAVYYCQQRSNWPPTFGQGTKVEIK
B29: H1 L1.29 XENP34592 (antibody, V domains shown)
VH: B1 VH with N58K
VL: B1 VL with A60D
B30: H1 L1.30 XENP34593 (antibody, V domains shown)
VH: B1 VH with N58K
VL: B1 VL with D70E
B31: H1 L1.28 XENP34591 (antibody, V domains shown)
VH: B1 VH with N58K
VL: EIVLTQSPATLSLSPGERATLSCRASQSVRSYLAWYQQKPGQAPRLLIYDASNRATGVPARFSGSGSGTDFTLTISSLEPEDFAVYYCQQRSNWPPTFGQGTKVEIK
B32: H1 L1.39 XENP34602 (antibody, V domains shown)
VH: B1 VH with N58K
VL: B1 VL with R91Q
B33: H1 L1.37 XENP34600 (antibody, V domains shown)
VH: B1 VH with N58K
VL: B1 VL with R91K
B34: H1 L1.18 XENP34581 (antibody, V domains shown)
VH: B1 VH with N58K
VL: B1 VL with Q42K
B35: H1 L1.13 XENP34576 (antibody, V domains shown)
VH: B1 VH with N58K
VL: B1 VL with Y32H
B36: H1 L1.25 XENP34588 (antibody, V domains shown)
VH: B1 VH with N58K
VL: B1 VL with N53T
B37: H1 L1.16 XENP34579 (antibody, V domains shown)
VH: B1 VH with N58K
VL: B1 VL with A34S
B38: H1 L1.31 XENP34594 (antibody, V domains shown)
VH: B1 VH with N58K
VL: B1 VL with S77R
B39: H1 L1.21 XENP34584 (antibody, V domains shown)
VH: B1 VH with N58K
VL: B1 VL with D50G
B40: H1 L1.17 XENP34580 (antibody, V domains shown)
VH: B1 VH with N58K
VL: B1 VL with A34T
B41: H1 L1.10 XENP34573 (antibody, V domains shown)
VH: B1 VH with N58K
VL: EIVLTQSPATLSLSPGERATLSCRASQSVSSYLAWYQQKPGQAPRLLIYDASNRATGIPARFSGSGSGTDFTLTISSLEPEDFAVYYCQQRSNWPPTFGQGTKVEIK
B42: H1 L1.15 XENP34578 (antibody, V domains shown)
VH: B1 VH with N58K
VL: B1 VL with A34N
B43: H1 L1.34 XENP34597 (antibody, V domains shown)
VH: B1 VH with N58K
VL: B1 VL with E79Q, P80S
B44: H1 L1.33 XENP34596 (antibody, V domains shown)
VH: B1 VH with N58K
VL: B1 VL with P80S
B45: H1 L1.43 XENP34606 (antibody, V domains shown)
VH: B1 VH with N58K
VL: B1 VL with S92N
B46: H1 L1.11 XENP34574 (antibody, V domains shown)
VH: B1 VH with N58K
VL: B1 VL with S31N
B47: H1 L1.38 XENP34601 (antibody, V domains shown)
VH: B1 VH with N58K
VL: B1 VL with R91S

molecular target: T1, human TGFßRII (antigen of the Octet experiments) (human, UniProt P37173 23-166); assay: BLI (Octet)
T1 sequence (P37173 23-166): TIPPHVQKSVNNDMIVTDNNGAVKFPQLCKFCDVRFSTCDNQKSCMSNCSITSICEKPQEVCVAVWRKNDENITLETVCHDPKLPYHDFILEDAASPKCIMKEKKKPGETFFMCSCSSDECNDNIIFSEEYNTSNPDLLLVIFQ

Kd	Binder
0.507 nM	B1
0.829 nM	B2
0.42 nM	B3
0.338 nM	B4
0.623 nM	B5
0.588 nM	B6
0.789 nM	B7
3.2 nM	B8
7.71 nM	B9
0.425 nM	B10
2.95 nM	B11
18.9 nM	B12
1.01 nM	B13
0.366 nM	B14
1.41 nM	B15
5.28 nM	B16
0.338 nM	B17
1.5 nM	B18
0.713 nM	B19

molecular target: T1, human TGFßRII (antigen of the Octet …); assay: BLI (Octet); remark: another data set of the same source

Kd	Binder
0.479 nM	B20
1.11 nM	B21
0.99 nM	B22
2.49 nM	B23
1.26 nM	B24
2.24 nM	B25
0.905 nM	B26
0.92 nM	B27
0.644 nM	B28
0.589 nM	B29
0.668 nM	B30
0.891 nM	B31
21 nM	B32
2.87 nM	B33
0.831 nM	B34
1.19 nM	B35
0.921 nM	B36
0.464 nM	B37
0.706 nM	B38
0.429 nM	B39
0.622 nM	B40
10.7 nM	B41
2.48 nM	B42
1.61 nM	B43
0.873 nM	B44
1.08 nM	B45
0.597 nM	B46
24.5 nM	B47
